Results: PMC11259706 (The Journal of Biological Chemistry, 2024)
Primed or numbered codes have the meaning given here. Where no end group is shown, it is not given here. 5FAM′ = 5-carboxyfluorescein; Ahx = NCCCCCC(=O)O

Assays:
full-length PP5 [1] = target: T1, full-length PP5 (Homo sapiens, UniProt P53041); assay: FP competition studies; type: binding; conditions: for affinity relative to natural MEEVD in competition FP: acetylated pentapeptides competing with Hsp90 tracer, n = 4
T1 construct: His-tag with TEV cleavage site (N, cleaved yes); made in house; host or cells: Escherichia coli BL21 (DE3)
T1 sequence (P53041 1-499): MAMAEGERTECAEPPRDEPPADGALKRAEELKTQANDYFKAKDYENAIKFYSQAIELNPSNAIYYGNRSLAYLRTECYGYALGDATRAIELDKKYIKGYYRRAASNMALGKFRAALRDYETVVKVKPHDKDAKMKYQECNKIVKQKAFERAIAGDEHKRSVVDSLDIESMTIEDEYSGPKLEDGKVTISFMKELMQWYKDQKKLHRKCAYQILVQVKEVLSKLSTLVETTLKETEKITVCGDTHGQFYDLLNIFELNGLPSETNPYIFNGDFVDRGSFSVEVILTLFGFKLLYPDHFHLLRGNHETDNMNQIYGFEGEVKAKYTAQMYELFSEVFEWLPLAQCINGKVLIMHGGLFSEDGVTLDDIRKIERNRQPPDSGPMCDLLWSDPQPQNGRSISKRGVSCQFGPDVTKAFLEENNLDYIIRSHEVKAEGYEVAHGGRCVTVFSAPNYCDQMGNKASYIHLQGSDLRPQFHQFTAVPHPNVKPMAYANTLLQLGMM
Description: (§1) These probes were stored as 10 mM DMSO stocks at −30 °C. […] Each well received PP5 (5 μl) from a 3-fold dilution series prepared using the assay buffer. […] The plate was shielded from light and allowed to incubate at room temperature for 15 min, a duration determined to reach equilibrium during assay development. All experiments were conducted in 384-well, black, low-volume, round-bottom plates (Corning; catalog number = 4511). […] Data analysis was carried out using GraphPad Prism 6.
Samples were incubated for 5 min prior to measurements. Results were analyzed as above.

PP5 = target: T2, PP5 (Homo sapiens, UniProt P53041); assay: pNPP colorimetric phosphatase assay; type: biochemical; conditions: peptide 100 μM
T2 construct: His-tag with TEV cleavage site (N, cleaved yes); made in house; host or cells: Escherichia coli BL21 (DE3)
T2 sequence (P53041 1-499): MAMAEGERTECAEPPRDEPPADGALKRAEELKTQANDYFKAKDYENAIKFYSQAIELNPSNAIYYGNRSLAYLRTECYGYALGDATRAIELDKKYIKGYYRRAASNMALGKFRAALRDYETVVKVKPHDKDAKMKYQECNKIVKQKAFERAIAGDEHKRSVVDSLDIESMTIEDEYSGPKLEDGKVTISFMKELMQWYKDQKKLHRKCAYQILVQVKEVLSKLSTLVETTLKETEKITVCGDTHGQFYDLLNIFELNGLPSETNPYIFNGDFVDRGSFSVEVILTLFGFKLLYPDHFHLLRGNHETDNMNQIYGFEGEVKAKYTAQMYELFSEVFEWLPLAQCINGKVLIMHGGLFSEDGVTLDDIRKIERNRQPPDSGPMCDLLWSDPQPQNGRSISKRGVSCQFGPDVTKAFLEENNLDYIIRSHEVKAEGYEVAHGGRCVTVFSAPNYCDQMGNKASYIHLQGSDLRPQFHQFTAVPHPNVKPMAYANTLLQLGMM
Description: To measure PP5’s enzyme activity, pNPP was used as substrate, as previously described ([24], [42]). Briefly, purified PP5 (1 μM) was incubated with peptides (100 μM) in 40 mM Hepes, 20 mM KCl, 5 mM MnCl2, and 1 mM DTT, pH 7.5 at 20 °C in 96-well microtiter plates (total volume 50 μl). Reactions were then initiated by addition of the pNPP substrate at concentrations from 0 to 60 mM. After 30 min, reactions were quenched with 2N NaOH (100 μl), and the release of p-nitrophenol was recorded at 410 nm (ε = 15,100 M − 1 cm−1) on a Molecular Devices M5 plate reader. Enzyme parameters (e.g., Km, kcat) were calculated using the Michaelis–Menten equation in Graphpad Prism 6.

[2] = target: protein phosphatase 5 (PP5), human, full-length (human) (UniProt P53041); assay: fluorescence polarisation; competition (Fig. 1B, C, E, F): unlabelled peptide varied, PP5 at a concentration equivalent to the Kd, tracer 20 nM (tracer not named for these panels), 5 min
full-length PP5 [3] = target: T1, full-length PP5; assay: Fluorescence polarization (FP) saturation binding of fluorescent tracers; conditions: for direct binding of tracer relative to natural sequence: FP direct binding, n = 4
Description: as §1

HEK293T cells = assay: Global translation assay; type: cell-based; conditions: 50 μg/ml, compared to DMSO control, three independent replicates
Description: HEK293T cells (ATCC) were cultured in Dulbecco’s Modified Eagle Medium supplemented with 10% fetal bovine serum and 1% penicillin/streptomycin. These cells were maintained at 37 °C/5% CO2 in a humidified incubator. Cells were negative for mycoplasma contamination (MicroSeq; ThermoFisher Scientific) at the start of the experiments, and they were used without further authentication.
The global translation assay (Abcam; ab273286) was used to measure protein synthesis according to the manufacturer’s specifications. Briefly, in this method, O-propargyl-puromycin is used to trap actively translating ribosomes, followed by addition of a fluorescent Click probe, such that suppression of translational is measured as a decrease in fluorescence. HEK293T cells or HEK293T cells overexpressing FLAG-PP5 were cultured as above. Cells were incubated with the supplied protein label reagent and incubated for 24 h, after which the cells were washed with culture media and fixed/permeabilized for 15 min in the dark. Click reactions were carried out for 30 min, and the plate fluorescence measured at Ex/Em 494/521 nm in a SpectraMax M5 multimode plate reader.

[4] = target: T3, protein phosphatase 5 (PP5), human, full-length (human, UniProt P53041 1-499); assay: fluorescence polarisation; saturation binding: tracer 20 nM, 3-fold dilution series of PP5; 50 mM Hepes, 75 mM NaCl, 0.001% Triton X-100, pH 7.4; room temperature, 15 min; conditions: both partners purified
T3 construct: protein phosphatase 5 (PP5), human, full-length, expressed from a pMCSG7 vector; source: E. coli BL21 (DE3), purified (Ni-NTA, TEV cleavage, size-exclusion chromatography); not shown: His-tag, N-terminal, cleaved
T3 sequence (looked up): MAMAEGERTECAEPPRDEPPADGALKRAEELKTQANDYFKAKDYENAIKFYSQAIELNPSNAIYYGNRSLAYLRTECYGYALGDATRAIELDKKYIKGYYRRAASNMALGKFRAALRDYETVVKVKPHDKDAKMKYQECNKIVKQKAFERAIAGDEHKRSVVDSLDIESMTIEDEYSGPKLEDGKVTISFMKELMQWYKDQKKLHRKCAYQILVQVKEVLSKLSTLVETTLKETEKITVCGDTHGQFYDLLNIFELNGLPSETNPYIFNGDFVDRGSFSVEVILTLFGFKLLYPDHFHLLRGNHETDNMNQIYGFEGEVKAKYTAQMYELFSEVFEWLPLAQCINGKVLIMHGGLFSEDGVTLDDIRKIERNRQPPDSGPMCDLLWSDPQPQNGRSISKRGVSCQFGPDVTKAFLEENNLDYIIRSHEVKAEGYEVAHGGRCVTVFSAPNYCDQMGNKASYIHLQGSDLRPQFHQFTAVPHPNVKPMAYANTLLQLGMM

[5] = target: T3, protein phosphatase 5 (PP5), human, …; assay: cell-based or functional assay
[6] = target: T4, protein phosphatase 5 (PP5), human, full-length (human, UniProt P53041 1-499); assay: FP
T4 chain: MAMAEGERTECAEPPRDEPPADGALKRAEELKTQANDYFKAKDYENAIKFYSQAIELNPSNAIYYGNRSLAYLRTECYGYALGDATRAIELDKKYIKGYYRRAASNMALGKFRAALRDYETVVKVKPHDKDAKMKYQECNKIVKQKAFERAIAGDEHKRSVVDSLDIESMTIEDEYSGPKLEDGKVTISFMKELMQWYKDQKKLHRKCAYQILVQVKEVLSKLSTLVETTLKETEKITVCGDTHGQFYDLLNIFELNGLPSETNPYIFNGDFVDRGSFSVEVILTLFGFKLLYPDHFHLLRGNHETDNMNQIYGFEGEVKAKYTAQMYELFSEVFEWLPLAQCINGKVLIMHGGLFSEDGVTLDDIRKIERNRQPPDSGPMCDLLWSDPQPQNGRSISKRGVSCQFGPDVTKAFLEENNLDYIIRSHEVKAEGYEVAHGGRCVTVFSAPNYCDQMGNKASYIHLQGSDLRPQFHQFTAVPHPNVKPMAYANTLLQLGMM

[7] = target: T3, protein phosphatase 5 (PP5), human, …; assay: fluorescence polarisation; competition with the Hsp90 tracer (Fig. 2C): PP5 at a concentration equivalent to the Kd, tracer 20 nM, 5 min; conditions: both partners purified

## LSLLA
full-length PP5 [1]; tracer 5FAM-AHX-LSLLD, unlabeled peptide, three independent experiments in technical triplicates
  competition with ELP1 tracer for binding to PP5: completely suppressed binding
PP5; DMSO 1%
  effect on PP5 enzyme activity: did not

## Hsp70 peptide with the P5 isoleucine replaced by alanine
[2]
  Ki: 13600 nM

## WEEVD [optimized acetylated pentapeptide]
full-length PP5 [1]
  affinity relative to natural MEEVD in competition FP: tighter affinity than the natural MEEVD

## 5FAM-AHX-WDDID
full-length PP5 [3]
  direct binding of tracer relative to natural sequence: bound tighter than the natural sequence

## 5FAM-AHX-WDDPD
full-length PP5 [3]
  direct binding of tracer relative to natural sequence: bound tighter than the natural sequence

## LSLLD [LSLLD]
full-length PP5 [3]; restates Fig. 5B, measured with tracer 5FAM-AHX-LSLLD, read-out: Kd of ELP1 C-terminal motif for PP5's TPR domain (restated)
  Kd: ~4000 nM
PP5; pNPP substrate
  effect on Km of PP5: both the kcat and Km were improved

## C[C@@H]1C[C@@H]([C@H](O)CC2CC(=O)NC(=O)C2)C(=O)[C@@H](C)C1 [cycloheximide]
HEK293T cells
  decrease in translation: 40%

## WDDLD [optimized acetylated pentapeptide]
full-length PP5 [1]
  affinity relative to natural MEEVD in competition FP: tighter affinity than the natural MEEVD

## Ac-GSGPTAEEVD [Hsp70 peptide, P5 isoleucine mutation]
full-length PP5 [1]; read-out: Ki, FP competition (truncations and alanine scan)
  Ki: ~13600 nM

B1: Hsp70 tracer 5FAM-AHX-IEEVD (peptide)
peptide: {5FAM′-Ahx}-IEEVD
notes: also called Hsp70 IEEVD tracer; source: synthetic peptide, custom synthesized by GenScript
[4]
  Kd: 941 ± 70 nM

B2: fluorescent tracer 5FAM-AHX-WEEVD (peptide)
peptide: {5FAM′-Ahx}-WEEVD
notes: also called WEEVD tracer; source: synthetic peptide
[4]
  Kd: 15 ± 10 nM

B3: fluorescent tracer 5FAM-AHX-WDDVD (peptide)
peptide: {5FAM′-Ahx}-WDDVD
notes: also called WDDVD tracer; source: synthetic peptide
[4]
  Kd: 17 ± 10 nM

B4: fluorescent tracer of the DDCP C-terminal sequence WKPVD (peptide)
peptide: WKPVD
modifications: also: fluorescent label (tracer), position not given here
notes: the label DDCP could not be tied to an entry; Probably 5FAM-AHX-labelled like the ELP1 tracer; also called DDCP tracer; source: synthetic peptide
[4]
  Kd: > 100000 nM

## Ac-WDDVD [optimized acetylated pentapeptide WDDVD]
[5]
  kcat of PP5 phosphatase activity on pNPP with peptide (100 μM); 2.5-fold: 0.24 s⁻¹
[6]
  Ki: 30 nM

B5: fluorescent tracer 5FAM-AHX-WDDPD (peptide)
peptide: {5FAM′-Ahx}-WDDPD
notes: also called WDDPD tracer; source: synthetic peptide
[4]
  binding result: binds

B6: fluorescent tracer 5FAM-AHX-WDDID (peptide)
peptide: {5FAM′-Ahx}-WDDID
notes: also called WDDID tracer; source: synthetic peptide
[4]
  binding result: binds

B7: optimized acetylated pentapeptide WDDLD (peptide)
peptide: Ac-WDDLD
notes: optimized EEVD-like pentapeptide from the PSSCL screen; source: synthetic peptide
[7]
  binding result: binds

B8: optimized acetylated pentapeptide WDDPD (peptide)
peptide: Ac-WDDPD
notes: as for B7
[6]
  Ki: 40 nM
[7]
  binding result: binds

B9: optimized acetylated pentapeptide WDDID (peptide)
peptide: Ac-WDDID
notes: as for B7
[6]
  Ki: 60 nM
[7]
  binding result: binds

B10: ELP1 tracer 5FAM-AHX-LSLLD (peptide)
peptide: {5FAM′-Ahx}-LSLLD
notes: C-terminal five amino acids of elongator acetyltransferase complex subunit 1 (ELP1; IKBKAP); also called LSLLD tracer; source: synthetic peptide
[4]
  Kd: 4400 ± 800 nM

## DSDSD (fluorescent label (tracer)) [fluorescent tracer of the U520 C-terminal five amino acids]
[4]
  Kd: > 100000 nM

## LSLLD [ELP1 C-terminal pentapeptide LSLLD (unlabelled)]
[5]
  kcat/Km of PP5 phosphatase activity on pNPP with peptide (100 μM); 0.49 μM^−1sec^−1 without peptide: 1.28 μM^−1sec^−1

## TMYFA (fluorescent label (tracer)) [fluorescent tracer of the AGO1 C-terminal five amino acids (negative control)]
[4]
  Kd: > 100000 nM
